Results: US20190144529A1 (UCB, published 2019)
Where a chain is given by its changes, count along the chain named.

B1: CA645 gL5gH5 Fab (Fab, V domains shown)
VH: EVQLLESGGGLVQPGGSLRLSCAVSGIDLSNYAINWVRQAPGKGLEWIGIIWASGTTFYATWAKGRFTISRDNSKNTVYLQMNSLRAEDTAVYYCARTVPGYSTAPYFDLWGQGTLVTVSS
VL: DIQMTQSPSSVSASVGDRVTITCQSSPSVASNFLSWYQQKPGKAPKLLIYEASKLTSGVPSRFSGSGSGTDFTLTISSLQPEDFATYYCGGGYSSISDTTFGGGTKVEIK
notes: Fab: human gamma1 CH1, human kappa (Km3); Kabat numbering
B2: CA645 humanized IgG1 (conservative graft gL1gH1) (antibody, V domains shown)
VH: EVQLLESGGGLVQPGGSLRLSCAVSGIDLSNYAINWVRQAPGKGLEWIGIIWASGTTFYATWAKGRFTISRDSTTVYLQMNSLRAEDTAVYYCARTVPGYSTAPYFDLWGQGTLVTVSS
VL: B1 VL with Q3V, A30W, S64K
notes: Human IgG1, full human gamma1 constant region, human kappa constant region (Km3 allotype); also called CA645 gL1gH1
B3: CA645 rabbit antibody secreted in B cell supernatant (antibody, V domains shown)
VH: QSLEESGGRLVTPGTPLTLTCTVSGIDLSNYAINWVRQAPGKGLEWIGIIWASGTTFYATWAKGRFTISRPSTTVDLEMTSLTTADTATYFCARTVPGYSTAPYFDLWGPGTLVTVSS
VL: AAVLTQTPSPVSAAVGGTVTINCQSSPSVWSNFLSWYQQKPGQPPKLLIYEASKLTSGVPSRFKGSGSGTQFTLTISDVQCGDAATYYCGGGYSSISDTTFGGGTKVVVK
notes: Rabbit IgG secreted by cultured B cells
B4: CA645 recombinant rabbit Fab (Fab, V domains shown)
VH: B3 VH
VL: B3 VL
notes: Fab with rabbit heavy CH1 and rabbit light chain constant region
B5: CA645 gL4gH31 Fab (Fab, V domains shown)
VH: B1 VH with S54V
VL: B1 VL with A30W
notes: as for B1
B6: CA645 gL4gH32 Fab (Fab, V domains shown)
VH: B1 VH with S54I
VL: B1 VL with A30W
notes: as for B1
B7: CA645 gL4gH33 Fab (Fab, V domains shown)
VH: B1 VH with S54L
VL: B1 VL with A30W
notes: as for B1
B8: CA645 gL4gH34 Fab (Fab, V domains shown)
VH: B1 VH with S54Q
VL: B1 VL with A30W
notes: as for B1
B9: CA645 gL4gH35 Fab (Fab, V domains shown)
VH: B1 VH with S54E
VL: B1 VL with A30W
notes: as for B1
B10: CA645 gL15gH5 Fab (Fab, V domains shown)
VH: B1 VH
VL: B1 VL with A30W, S31R
notes: as for B1
B11: CA645 gL16gH5 Fab (Fab, V domains shown)
VH: B1 VH
VL: B1 VL with A30W, S31W
notes: as for B1
B12: CA645 gL17gH5 Fab (Fab, V domains shown)
VH: B1 VH
VL: B1 VL with A30W, S31N
notes: as for B1
B13: CA645 gL18gH5 Fab (Fab, V domains shown)
VH: B1 VH
VL: B1 VL with A30W, S31I
notes: as for B1
B14: CA645 gL19gH5 Fab (Fab, V domains shown)
VH: B1 VH
VL: B1 VL with A30W, S31D
notes: as for B1
B15: CA645 gL20gH5 Fab (Fab, V domains shown)
VH: B1 VH
VL: B1 VL with A30W, S31Q
notes: as for B1
B16: CA645 gL21gH5 Fab (Fab, V domains shown)
VH: B1 VH
VL: B1 VL with A30W, S31E
notes: as for B1
B17: CA645 gL22gH5 Fab (Fab, V domains shown)
VH: B1 VH
VL: B1 VL with A30W, S31H
notes: as for B1
B18: CA645 gL23gH5 Fab (Fab, V domains shown)
VH: B1 VH
VL: B1 VL with A30W, S31L
notes: as for B1
B19: CA645 gL24gH5 Fab (Fab, V domains shown)
VH: B1 VH
VL: B1 VL with A30W, S31V
notes: as for B1
B20: CA645 gL25gH5 Fab (Fab, V domains shown)
VH: B1 VH
VL: B1 VL with A30W, S31F
notes: as for B1
B21: CA645 gL26gH5 Fab (Fab, V domains shown)
VH: B1 VH
VL: B1 VL with A30W, S31Y
notes: as for B1
B22: CA645 gL4gH46 Fab (Fab, V domains shown)
VH: B1 VH with V99Y
VL: B1 VL with A30W
notes: as for B1
B23: CA645 gL11gH5 Fab (Fab, V domains shown)
VH: B1 VH
VL: B1 VL with S28N, A30W
notes: as for B1
B24: CA645 gL28gH5 Fab (Fab, V domains shown)
VH: B1 VH
VL: B1 VL with A30W, S68L
notes: as for B1
B25: CA645 gL29gH5 Fab (Fab, V domains shown)
VH: B1 VH
VL: B1 VL with A30W, S68V
notes: as for B1
B26: CA645 gL30gH5 Fab (Fab, V domains shown)
VH: B1 VH
VL: B1 VL with A30W, S68I
notes: as for B1
B27: CA645 gL31gH5 Fab (Fab, V domains shown)
VH: B1 VH
VL: B1 VL with A30W, S68T
notes: as for B1
B28: CA645 gL32gH5 Fab (Fab, V domains shown)
VH: B1 VH
VL: B1 VL with A30W, S68Q
notes: as for B1
B29: CA645 gL33gH5 Fab (Fab, V domains shown)
VH: B1 VH
VL: B1 VL with A30W, S68E
notes: as for B1

Each binder was assayed against T1, mouse serum albumin (mouse, UniProt P07724 25-608) (assay: SPR).
T1 construct: mature; Bought purified serum albumin; also called MSA; Mouse albumin
Description: (§1) For analysis at pH 7.0, 6.0, 5.5 and 5.0, a running buffer of 40 mM citric acid, 80 mM sodium phosphate 50 mM NaCl, 3 mM EDTA, 0.05% v/v P20 was used. The required pH was achieved by altering the ratio of citric acid to sodium phosphate. All experiments were performed at 25° C. The antibody samples were captured to the sensor chip surface using either a human F(ab′)₂-specific or human Fc-specific goat Fab (Jackson ImmunoResearch). Covalent immobilisation of the capture antibody was achieved by standard amine coupling chemistry to a level of 6000-7000 response units (RU).
(§2) Each assay cycle consisted of firstly capturing the antibody sample using a 1 min injection, before an association phase consisting of a 3 min injection of albumin, after which dissociation was monitored. After each cycle, the capture surface was regenerated with two 1 min injections of 40 mM HCl followed by 30 s of 5 mM NaOH. The flow rates used were 10 μl/min for capture, 30 μl/min for both the association and dissociation phases, and 10 μl/min for regeneration. A blank flow-cell was used for reference subtraction and buffer-blank injections were included to subtract instrument noise and drift.

Binder | fold weaker affinity for MSA than for HSA
B1 | 1.2 fold

The binders below were run against T2, rat serum albumin (rat, UniProt P02770 25-608) (assay: SPR, humanized IgG1).
T2 construct: mature; Bought purified serum albumin; also called RSA; Rat albumin
Description: as §1, §2

Binder | Kd
B2 | 7.9 nM

The binders below were run against T1, mouse serum albumin (assay: SPR, humanized IgG1).
Description: as §1, §2

Binder | Kd
B2 | 2.9 nM

Each binder was assayed against T3, human serum albumin (human, UniProt P02768 25-609) (assay: SPR, humanized IgG1).
T3 construct: mature; Bought purified serum albumin; also called HSA; Human albumin
Description: as §1, §2

Binder | Kd
B2 | 0.82 nM

These binders were tested against T2, rat serum albumin (assay: FMAT, B cell supernatant).

Binder | fold difference of binding level to RSA against HSA
B3 | ≤ 5 fold

The binders below were run against T1, mouse serum albumin (assay: SPR, Fab captured, albumin titrated).
Description: as §1, §2

Binder | Kd | koff | kon
B1 | 316 nM | 0.0038 s⁻¹ | 12000 M⁻¹ s⁻¹

What follows are binders tested against T3, human serum albumin (assay: SPR, Fab captured, albumin titrated).
Description: as §1, §2

Binder | Kd | koff | kon
B1 | 254 nM | 0.022 s⁻¹ | 85000 M⁻¹ s⁻¹

These binders were tested against T1, mouse serum albumin (assay: SPR, rabbit Fab).

Binder | Kd
B4 | 2.6 nM

Each binder was assayed against T3, human serum albumin (assay: SPR, rabbit Fab).

Binder | Kd
B4 | 0.31 nM

The binders below were run against T3, human serum albumin (assay: SPR, HSA).
Description: as §1, §2

Binder | fold weaker affinity than gL4gH5
B1 | 368 fold

The binders below were run against T3, human serum albumin (assay: SPR, Fab captured, HSA).
Description: as §1, §2

Binder | Kd | koff | kon
B1 | 453 nM | 0.0571 s⁻¹ | 126000 M⁻¹ s⁻¹

The binders below were run against T3, human serum albumin (assay: SPR, Fab captured; albumin taken as HSA).
Description: as §2

Binder | Kd | koff | kon
B5 | 4.18 nM | 0.000167 s⁻¹ | 40000 M⁻¹ s⁻¹
B6 | 4.38 nM | 0.000169 s⁻¹ | 38600 M⁻¹ s⁻¹
B7 | 6.18 nM | 0.00024 s⁻¹ | 38900 M⁻¹ s⁻¹
B8 | 11 nM | 0.000422 s⁻¹ | 38500 M⁻¹ s⁻¹
B9 | 15.1 nM | 0.000399 s⁻¹ | 26500 M⁻¹ s⁻¹
B10 | 4.62 nM | 0.000277 s⁻¹ | 60100 M⁻¹ s⁻¹
B11 | 3.06 nM | 0.000169 s⁻¹ | 55300 M⁻¹ s⁻¹
B12 | 5.5 nM | 0.000323 s⁻¹ | 58800 M⁻¹ s⁻¹
B13 | 15.5 nM | 0.000823 s⁻¹ | 53200 M⁻¹ s⁻¹
B14 | 5 nM | 0.00026 s⁻¹ | 52000 M⁻¹ s⁻¹
B15 | 14.3 nM | 0.000794 s⁻¹ | 55500 M⁻¹ s⁻¹
B16 | 6.34 nM | 0.000323 s⁻¹ | 51000 M⁻¹ s⁻¹
B17 | 8.58 nM | 0.000478 s⁻¹ | 55700 M⁻¹ s⁻¹
B18 | 14.8 nM | 0.000814 s⁻¹ | 54900 M⁻¹ s⁻¹
B19 | 16.1 nM | 0.000883 s⁻¹ | 54700 M⁻¹ s⁻¹
B20 | 3.85 nM | 0.000217 s⁻¹ | 56200 M⁻¹ s⁻¹
B21 | 4.13 nM | 0.000248 s⁻¹ | 60100 M⁻¹ s⁻¹

Molecular target: T3, human serum albumin
Experiment: SPR, Fab captured; albumin taken as HSA
Remark: another data set of the same source
Description: as §2

Binder | Kd | koff | kon
B22 | 3.26 nM | 0.000184 s⁻¹ | 56400 M⁻¹ s⁻¹
B23 | 4.42 nM | 0.000249 s⁻¹ | 56400 M⁻¹ s⁻¹
B24 | 1.85 nM | 0.000109 s⁻¹ | 59000 M⁻¹ s⁻¹
B25 | 1.78 nM | 0.000103 s⁻¹ | 57700 M⁻¹ s⁻¹
B26 | 1.61 nM | 9.4e-05 s⁻¹ | 58400 M⁻¹ s⁻¹
B27 | 2.49 nM | 0.000142 s⁻¹ | 57200 M⁻¹ s⁻¹
B28 | 2.44 nM | 0.000143 s⁻¹ | 58600 M⁻¹ s⁻¹
B29 | 3.32 nM | 0.000179 s⁻¹ | 54000 M⁻¹ s⁻¹
